From PMC2928791 (PLoS Pathogens, 2010) come the findings set out here.

Assay [1] has as its target CAV20 non-structural protein 2C^ATPase (wt) (coxsackie A virus 20 (CAV20)). Briefly: co-IP.
Assay [2] addresses T1, PV GST-2C^ATPase (poliovirus (PV; the paper's PV is type …, UniProt P03300 1128-1456).
T1 sequence: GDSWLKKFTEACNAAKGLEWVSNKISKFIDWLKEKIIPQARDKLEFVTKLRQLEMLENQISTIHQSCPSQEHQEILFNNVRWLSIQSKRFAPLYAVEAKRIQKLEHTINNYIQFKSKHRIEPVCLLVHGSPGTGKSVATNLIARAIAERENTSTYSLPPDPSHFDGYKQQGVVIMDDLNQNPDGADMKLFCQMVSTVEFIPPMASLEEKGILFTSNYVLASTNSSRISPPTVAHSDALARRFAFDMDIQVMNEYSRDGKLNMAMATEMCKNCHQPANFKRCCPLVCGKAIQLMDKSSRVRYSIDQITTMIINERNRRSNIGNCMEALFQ
Briefly: […] (50 mM Tris-HCl pH 7.5, 140 mM NaCl, 0.1% Triton X-100, […]. As to conditions: both partners purified.

In assay [1], “CAV20 structural protein VP3 (wt) (natural protein)” returned a percent of the level in the CAV20 2C^ATPase and CAV20 VP3 Co-IP reaction of 100%.

B1: PV His-tagged VP3 (natural protein)
chain: GLPVMNTPGSNQYLTADNFQSPCALPEFDVTPPIDIPGEVKNMMELAEIDTMIPFDLSATKKNTMEMYRVRLSDKPHTDDPILCLSLSPASDPRLSHTMLGEILNYYTHWAGSLKFTFLFCGFMMATGKLLVSYAPPGADPPKKRKEAMLGTHVIWDIGLQSSCTMVVPWISNTTYRQTIDDSFTEGGYISVFYQTRIVVPLSTPREMDILGFVSACNDFSVRLLRDTTHIEQKALAQ
Turning to B1, in assay [2], the binding result is listed as “binds”.
